Laboratory results as given in patent publication US20140193420A1 (UNIVERSITY OF TOKYO, published 2014).

B1: anti-ITM2A monoclonal antibody BE6-1 (antibody, mouse IgG1, V domains shown)
VH: EVQLQQSGPELVKPGASVKISCKTSGYTFTEYTMHWVKQSHGKSLEWIGGINPNNGDTSYNQKFKGKATLTVDKSSITAYMELRSLTSEDSAVYYCARGPFAYWGQGTLVTVST
VL: DVVMTQTPLSLPVSLGDQASISCRSSQSLVHSNGNTYFHWYLQKPGQSPKFLIYKVSNRFFGVPDRFSGSGSGTDFTLKISRVEAEDLGVYFCSQTTHFPFTFGSGTKLEIK
B2: anti-ITM2A monoclonal antibody BE13-1 (antibody, mouse IgG1, V domains shown)
VH: EVQLQQSGPELVKPGASVRMSCKASGYTFTDYYMKWVKQSHGKSLEWIGDINPNNGGLSYNQKFKGKATLTVDKSSSTAYMQLASLTSEDSAVYYCAIWSGAYWGQGTLVTVSA
VL: not shown
B3: anti-ITM2A monoclonal antibody BE5-1 (antibody, mouse IgG1, V domains shown)
VH: QVQLVETGGGLVRPGNSLKLSCVTSGFTFSDYRMHWLRQSPGKRLEWIAVITGKSDNYGASYAESVKGRFTISRDDSKSSVYLQMNRLREEDTATYYCSRRDYWGQGTSVTVSS
VL: DIVMTQAAPSVPVTPGESVSISCRSSKSLLHSNGNTYLYWFLQRPGQSPQLLIYRMSNLAPGVPDRFSGSGSGTAFTLRISRVEAEDVGVYYCMQHLEYPFTFGAGTKLELK

How the values were obtained:
[1] = biological target: T1, GST-ITM2A-L (GST fusion of the ITM2A extracellular region Tyr75-Glu263, C-terminally His-tagged) (human); assay: ELISA, coated GST-ITM2A-L
T1 construct: Expressed in E. coli, solubilized and purified in 8 M urea buffer, coated on the ELISA plate
T1 sequence (chain, as listed by the source limits assumed): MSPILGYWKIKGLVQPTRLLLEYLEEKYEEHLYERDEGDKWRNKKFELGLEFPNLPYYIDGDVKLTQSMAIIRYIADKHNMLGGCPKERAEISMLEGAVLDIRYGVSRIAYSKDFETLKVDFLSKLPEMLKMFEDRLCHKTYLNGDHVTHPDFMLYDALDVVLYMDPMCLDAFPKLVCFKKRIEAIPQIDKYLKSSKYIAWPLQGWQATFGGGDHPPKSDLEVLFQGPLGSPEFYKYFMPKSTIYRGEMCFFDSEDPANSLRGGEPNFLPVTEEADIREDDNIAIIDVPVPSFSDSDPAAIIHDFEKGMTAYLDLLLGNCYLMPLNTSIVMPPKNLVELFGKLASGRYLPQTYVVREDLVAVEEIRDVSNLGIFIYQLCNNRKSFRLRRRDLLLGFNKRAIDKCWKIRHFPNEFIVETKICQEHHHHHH
Description: (§1) Each anti-ITM2A monoclonal antibody prepared in Example 2 was evaluated for its binding to GST-ITM2A-L and GST-ITM2A-S by ELISA. First, 100 μL each of GST-ITM2A-L and GST-ITM2A-S solutions having a concentration of 3 μg/mL was added to each well of a 96-well plate for ELISA (Nunc-Immuno Plate, Thermo Fisher Scientific K.K.) to coat the well with GST-ITM2A-L or GST-ITM2A-S. The coated well was blocked with a buffer containing 1% bovine serum albumin. Then, 100 μL each of solutions of the antibodies BE5-1, BE6-1, BE7-1-1, and BE13-1 diluted with the same buffer as above was added to each well. The plate was incubated at room temperature for 1 hour. The positive control used was an anti-His antibody (mouse IgG1, Santa Cruz Biotechnology, Inc.). The negative control used was mouse IgG1 (BD Pharmingen). Each antibody was diluted into 8 dilutions at a common ratio of 3.16 from a concentration of 1 μg/mL. After reaction with a secondary antibody (alkaline phosphatase-goat anti-mouse IgG (Gamma), Invitrogen Corp.), a substrate (phosphatase substrate, Sigma-Aldrich Corp.) was added to each well. Color developed by the reaction solution in each well was determined by the measurement of absorbance at 405 nm to 655 nm.

[2] = biological target: T2, GST-ITM2A-S (GST fusion of ITM2A Tyr75-Lys182, C-terminally His-tagged) (human); assay: ELISA, coated GST-ITM2A-S
T2 construct: Expressed in E. coli, solubilized and purified in 8 M urea buffer, coated on the ELISA plate
T2 sequence (chain, as listed by the source limits assumed): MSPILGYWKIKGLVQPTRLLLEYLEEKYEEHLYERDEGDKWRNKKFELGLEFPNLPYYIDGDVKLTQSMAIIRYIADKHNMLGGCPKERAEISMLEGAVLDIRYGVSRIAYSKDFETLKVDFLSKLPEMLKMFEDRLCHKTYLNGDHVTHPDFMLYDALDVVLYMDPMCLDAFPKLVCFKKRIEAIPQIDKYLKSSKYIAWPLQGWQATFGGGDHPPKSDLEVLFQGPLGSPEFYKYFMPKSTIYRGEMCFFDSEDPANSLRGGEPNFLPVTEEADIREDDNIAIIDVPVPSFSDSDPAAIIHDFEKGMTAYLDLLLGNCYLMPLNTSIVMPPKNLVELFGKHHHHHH
Description: as §1

[3] = biological target: T3, C-terminally HA-tagged ITM2A expressed on CHO cells (ITM2A_CHO) (human, UniProt O43736 1-263); assay: flow cytometry on ITM2A_CHO cells
T3 construct: Type II membrane protein on DG44 CHO cells; also called ITM2A-HA; ITM2A-expressing CHO cells
T3 sequence (O43736 other isoform, or with tags, fused parts or gaps): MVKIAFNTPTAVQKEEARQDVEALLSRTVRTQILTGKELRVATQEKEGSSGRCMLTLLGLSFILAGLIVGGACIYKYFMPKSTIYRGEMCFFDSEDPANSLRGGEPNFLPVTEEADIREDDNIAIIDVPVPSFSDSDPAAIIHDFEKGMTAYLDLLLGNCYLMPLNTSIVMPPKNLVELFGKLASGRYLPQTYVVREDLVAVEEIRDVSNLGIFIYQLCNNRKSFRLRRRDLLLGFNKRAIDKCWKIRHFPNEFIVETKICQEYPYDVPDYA
Description: (§2) Each anti-ITM2A monoclonal antibody prepared in Example 2 was assayed for its binding to ITM2A-furin by flow cytometry (FACS). The cells used were ITM2A-furin_CHO prepared in the paragraph (4-1), ITM2A_CHO prepared in the paragraph (2-4), and host cells CHO. These cells were separately suspended in PBS supplemented with 0.2% bovine serum albumin and 0.1% NaN3 (FACS buffer). To each cell suspension, the antibody BE5-1, BE6-1, BE7-1-1, or BE13-1, mouse IgG1, or an anti-HA antibody (clone HA-7, mouse IgG1, Sigma-Aldrich Corp.) was added, and the resulting cell suspension was incubated for 1 hour on ice. Each antibody was diluted into 6 dilutions at a common ratio of 5 from a concentration of 10 μg/mL. After washing of the cells with a FACS buffer, an FITC-labeled anti-mouse IgG antibody (Goat F(ab′)2 Fragment Anti-mouse IgG (Fcγ)-FITC, Beckman Coulter, Inc.) was added thereto as a secondary antibody. The resulting cell suspension was incubated for 1 hour on ice. The cells were washed with a FACS buffer, then suspended in a FACS buffer supplemented with 10 μg/mL propidium iodide (PI, Sigma-Aldrich Corp.), and subjected to assay using a flow cytometer. The assay data was analyzed using CELLQuest software (Becton, Dickinson and Company) to evaluate a PI-negative live cell population.

[4] = biological target: T4, C-terminally HA-tagged mouse ITM2A expressed on CHO cells (mITM2A_CHO) (mouse, UniProt Q61500 1-263); assay: flow cytometry on mITM2A_CHO cells
T4 construct: also called mITM2A-HA; mouse ITM2A-expressing CHO cells
T4 sequence (Q61500 other isoform, or with tags, fused parts or gaps): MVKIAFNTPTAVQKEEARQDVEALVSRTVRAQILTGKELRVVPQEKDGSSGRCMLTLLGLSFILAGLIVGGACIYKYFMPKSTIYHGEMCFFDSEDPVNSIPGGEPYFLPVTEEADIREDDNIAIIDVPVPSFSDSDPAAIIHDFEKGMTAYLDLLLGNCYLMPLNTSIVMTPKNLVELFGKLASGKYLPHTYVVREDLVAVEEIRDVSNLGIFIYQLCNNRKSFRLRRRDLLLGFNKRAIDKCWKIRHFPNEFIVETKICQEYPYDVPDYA

[5] = biological target: T5, ITM2A-furin (Met1 to Leu227 of ITM2A with an HA tag added downstream) expressed on CHO cells (ITM2A-furin_CHO) (human, UniProt O43736 1-227); assay: flow cytometry on ITM2A-furin_CHO cells
T5 construct: C-terminally truncated ITM2A on DG44 CHO cells; also called ITM2A-furin-HA; ITM2A-furin-expressing CHO cells
T5 sequence (O43736 other isoform, or with tags, fused parts or gaps limits assumed): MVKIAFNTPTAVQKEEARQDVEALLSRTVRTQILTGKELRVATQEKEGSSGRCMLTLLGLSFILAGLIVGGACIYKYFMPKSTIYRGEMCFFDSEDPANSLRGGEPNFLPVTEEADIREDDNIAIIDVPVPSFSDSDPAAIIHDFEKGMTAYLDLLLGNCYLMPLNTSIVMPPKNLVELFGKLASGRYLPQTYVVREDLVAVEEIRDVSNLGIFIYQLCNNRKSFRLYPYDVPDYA
Description: as §2

[6] = biological target: T6, human ITM2A protein (endogenous, on human cancer cell lines) (human, UniProt O43736 1-263); assay: flow cytometry on human cancer cell lines, BE6-1 at 10 µg/mL, mouse IgG1 as negative control
T6 construct: also called NP-004858.1
T6 sequence (O43736 whole entry): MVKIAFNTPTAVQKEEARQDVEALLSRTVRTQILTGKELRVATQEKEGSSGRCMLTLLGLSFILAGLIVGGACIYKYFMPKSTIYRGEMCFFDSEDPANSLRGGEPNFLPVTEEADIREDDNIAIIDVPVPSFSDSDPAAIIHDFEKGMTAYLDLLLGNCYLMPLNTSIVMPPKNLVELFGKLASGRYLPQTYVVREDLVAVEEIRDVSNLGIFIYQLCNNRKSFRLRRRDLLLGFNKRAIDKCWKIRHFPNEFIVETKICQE
Description: as §2
The expression of ITM2A was assayed in human cancer cell lines by FACS. […]

[7] = biological target: T3, C-terminally HA-tagged ITM2A expressed …; assay: flow cytometry screening of hybridoma supernatants on ITM2A_CHO against parent CHO cells

Binder	binding result [1]	binding result [2]	binding result [3]	binding result [4]	binding result [5]	binding result [6]	binding result [7]
B1	binds	binds	binds	no binding	binds	binds	–
B2	binds	–	binds	binds	–	–	–
B3	binds	binds	–	binds	binds	–	binds
